# Results published in article PMC4337669.
# System: H-NS (Escherichia coli)
# Experiment: EMSA
# Conditions: 40 mM HEPES-KOH pH 8.0, 100 mM K-glutamate, 0.022% NP-40, 100 µg/ml BSA, 10% glycerol, 2 or 8 mM Mg aspartate, 20 °C 20 min; 3% native PAGE in 0.5x TBE + 2.5% …
substance,measurement,value
λPR-bgl template (linear pMK110 PCR fragment),K half,2 nM
